Experimental data taken from patent US20060099643A1, “Method for determining the regulation of xenobiotic removal” (priority 2002, published 2006).

T1: SXR (Homo sapiens, UniProt O75469)
T1 sequence (O75469 1-434): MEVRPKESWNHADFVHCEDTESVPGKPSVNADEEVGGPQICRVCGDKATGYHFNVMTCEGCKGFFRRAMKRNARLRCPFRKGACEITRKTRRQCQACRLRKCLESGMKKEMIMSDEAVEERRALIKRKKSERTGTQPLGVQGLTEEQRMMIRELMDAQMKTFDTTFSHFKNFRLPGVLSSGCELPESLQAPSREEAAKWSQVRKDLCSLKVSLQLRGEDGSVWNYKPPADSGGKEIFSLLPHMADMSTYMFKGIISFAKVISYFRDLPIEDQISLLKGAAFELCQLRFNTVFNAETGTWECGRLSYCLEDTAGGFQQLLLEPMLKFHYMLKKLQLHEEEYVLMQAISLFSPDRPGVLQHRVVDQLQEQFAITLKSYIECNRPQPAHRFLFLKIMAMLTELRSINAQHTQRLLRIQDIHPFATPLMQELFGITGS

T2: ER-α (UniProt P03372 297-554, limits assumed)
T2 construct: also called estrogen receptor alpha
T2 sequence (looked up): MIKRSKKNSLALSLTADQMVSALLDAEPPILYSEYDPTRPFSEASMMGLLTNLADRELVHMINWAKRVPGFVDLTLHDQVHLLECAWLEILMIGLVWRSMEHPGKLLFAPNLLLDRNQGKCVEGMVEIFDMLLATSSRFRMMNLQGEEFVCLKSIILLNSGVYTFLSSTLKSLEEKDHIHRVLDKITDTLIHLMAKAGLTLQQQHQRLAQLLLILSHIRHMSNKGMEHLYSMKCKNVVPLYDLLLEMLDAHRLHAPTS

T3: SXR (UniProt O75469 130-434, limits assumed)
T3 construct: also called steroid and xenobiotic receptor; steroid X receptor
T3 sequence (looked up): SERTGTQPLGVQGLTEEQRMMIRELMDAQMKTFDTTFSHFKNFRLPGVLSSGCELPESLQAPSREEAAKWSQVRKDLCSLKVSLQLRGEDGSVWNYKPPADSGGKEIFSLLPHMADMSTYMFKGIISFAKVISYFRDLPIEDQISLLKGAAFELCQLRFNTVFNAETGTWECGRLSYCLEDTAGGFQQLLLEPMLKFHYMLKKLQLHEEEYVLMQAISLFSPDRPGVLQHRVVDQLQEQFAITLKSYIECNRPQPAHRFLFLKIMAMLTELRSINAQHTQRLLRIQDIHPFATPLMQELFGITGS


Assays:
SXR [1] = target: T1, SXR; conditions: from Ekins & Erickson, Drug Metabolism and Disposition, 30, 96-99 and references therein; cited from earlier work
SXR [2] = target: T1, SXR; experiment: Microplate thermal shift assay (Thermofluor) of SXR with ligands, co-activator peptide SRC1-NR2 and co-repressor peptide NCoR-1; conditions: for ΔΔTm SRC1-NR2 / ΔTm ligand: SXR 6 μM, ligand 50 μM; for ΔΔTm SRC1-NR2: co-activator peptide SRC1-NR2 100 μM, change from the receptor-ligand ΔTm; for ΔTm ligand: average of four experiments; for Probability Agonist (statistical probability of agonist state): computed from affinities derived from ΔΔTm with co-regulator peptides (FIG. 3); for ΔTm at 100 µM: read-out: ΔΔTm NcoR1-NR2
Method: A 2 μL ligand solution at 2 times the final concentration was dispensed with a micropipette into a 384 well black wall Greiner plate. Then, 2 μL of the protein dye solution was dispensed on top of the ligand solution in the 384 well plate. The plates were spun to ensure mixing of the protein-dye and ligand solutions followed by layering of 1 μL of silicone oil to prevent evaporation during heating of the samples. […] The values for the co-regulators represent a change in Tm stabilization from the receptor-ligand ΔTm values.

ER-α [3] = target: T2, ER-α; experiment: Thermofluor thermal shift; ER-α 8 µM, no ligand; peptide 100 µM
SXR [4] = target: T3, SXR; experiment: Thermofluor thermal shift; SXR 6 µM with clofibrate 50 µM; peptide 100 µM
SXR [5] = target: T3, SXR; experiment: Thermofluor thermal shift; SXR 6 µM with 11-α-hydroxy-progesterone 50 µM; peptide 100 µM
ER-α [6] = target: T2, ER-α; experiment: Thermofluor thermal shift; ER-α 8 µM with estrone 20 µM; peptide 100 µM
ER-β [7] = target: T4, ER-β (UniProt Q92731 256-505, limits assumed); experiment: Thermofluor thermal shift; ER-β 8 µM with estradiol 20 µM; peptide 100 µM
T4 construct: also called estrogen receptor beta

SXR [8] = target: T3, SXR; experiment: Thermofluor thermal shift; SXR 6 µM with hydrocortisone 50 µM; peptide 100 µM
ER-α [9] = target: T2, ER-α; experiment: Thermofluor thermal shift; ER-α 8 µM with tamoxifen 20 µM; peptide 100 µM
SXR [10] = target: T3, SXR; experiment: Thermofluor thermal shift; SXR 6 µM with androsterone 50 µM; peptide 100 µM
ER-β [11] = target: T4, ER-β; experiment: Thermofluor thermal shift; ER-β 8 µM with 4-OH-tamoxifen 20 µM; peptide 100 µM
ER-α [12] = target: T2, ER-α; experiment: Thermofluor thermal shift; ER-α 8 µM with 4-OH-tamoxifen 20 µM; peptide 100 µM
ER-β [13] = target: T4, ER-β; experiment: Thermofluor thermal shift; ER-β 8 µM, no ligand; peptide 100 µM
SXR [14] = target: T3, SXR; experiment: Thermofluor thermal shift; SXR 6 µM with taxol 50 µM; peptide 100 µM
SXR [15] = target: T3, SXR; experiment: Thermofluor thermal shift; SXR 6 µM with 17-α-hydroxyprogesterone 50 µM; peptide 100 µM
SXR [16] = target: T3, SXR; experiment: Thermofluor thermal shift; SXR 6 µM with lithocholic acid 50 µM; peptide 100 µM
ER-α [17] = target: T2, ER-α; experiment: Thermofluor thermal shift; ER-α 8 µM with 17-α-ethylene-E2 20 µM; peptide 100 µM
ER-β [18] = target: T4, ER-β; experiment: Thermofluor thermal shift; ER-β 8 µM with estrone 20 µM; peptide 100 µM
SXR [19] = target: T3, SXR; experiment: Thermofluor thermal shift; SXR 6 µM with lovastatin 50 µM; peptide 100 µM
SXR [20] = target: T3, SXR; experiment: Thermofluor thermal shift; SXR 6 µM with 4-androstene 50 µM; peptide 100 µM
ER-α [21] = target: T2, ER-α; experiment: Thermofluor thermal shift; ER-α 8 µM with estradiol 20 µM; peptide 100 µM
SXR [22] = target: T3, SXR; experiment: Thermofluor thermal shift; SXR 6 µM, ligand free; peptide 100 µM
ER-β [23] = target: T4, ER-β; experiment: Thermofluor thermal shift; ER-β 8 µM with ICI-182780 20 µM; peptide 100 µM
SXR [24] = target: T3, SXR; experiment: Thermofluor thermal shift; SXR 6 µM with cortisone 50 µM; peptide 100 µM
ER-β [25] = target: T4, ER-β; experiment: Thermofluor thermal shift; ER-β 8 µM with tamoxifen 20 µM; peptide 100 µM
SXR [26] = target: T3, SXR; experiment: Thermofluor thermal shift; SXR 6 µM with corticosterone 50 µM; peptide 100 µM
ER-β [27] = target: T4, ER-β; experiment: Thermofluor thermal shift; ER-β 8 µM with 2-methoxy-E2 20 µM; peptide 100 µM
ER-α [28] = target: T2, ER-α; experiment: Thermofluor thermal shift; ER-α 8 µM with 2-methoxy-E2 20 µM; peptide 100 µM
SXR [29] = target: T3, SXR; experiment: Thermofluor thermal shift; SXR 6 µM with estradiol 50 µM; peptide 100 µM
ER-α [30] = target: T2, ER-α; experiment: Thermofluor thermal shift; ER-α 8 µM with ICI-182780 20 µM; peptide 100 µM
ER-β [31] = target: T4, ER-β; experiment: Thermofluor thermal shift; ER-β 8 µM with 17-α-ethylene-E2 20 µM; peptide 100 µM

T4 sequence (Q92731 256-505 limits assumed): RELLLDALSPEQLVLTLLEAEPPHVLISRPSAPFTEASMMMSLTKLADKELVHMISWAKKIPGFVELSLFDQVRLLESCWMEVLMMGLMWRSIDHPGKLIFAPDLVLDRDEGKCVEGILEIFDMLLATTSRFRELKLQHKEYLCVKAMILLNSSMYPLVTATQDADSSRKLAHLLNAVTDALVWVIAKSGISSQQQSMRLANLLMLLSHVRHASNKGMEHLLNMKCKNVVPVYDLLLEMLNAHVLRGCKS

| Kd (SXR [2]) [nM] | ΔΔTm SRC1-NR2 (SXR [2]) | ΔTm ligand (SXR [2]) [°C] | Probability Agonist (statistical probability of agonist state) (SXR [2]) | ΔTm at 100 µM (SXR [2]) [°C] | Molecule | fold activation (SXR [1]) | change in Tm stabilization from the receptor-ligand ΔTm (ER-α [3]) | ΔΔTm (SXR [4]) | ΔΔTm (SXR [5]) | change in Tm stabilization from the receptor-ligand ΔTm (ER-α [6]) | change in Tm stabilization from the receptor-ligand ΔTm (ER-β [7]) | ΔΔTm (SXR [8]) | change in Tm stabilization from the receptor-ligand ΔTm (ER-α [9]) | ΔΔTm (SXR [10]) | change in Tm stabilization from the receptor-ligand ΔTm (ER-β [11]) | change in Tm stabilization from the receptor-ligand ΔTm (ER-α [12]) | change in Tm stabilization from the receptor-ligand ΔTm (ER-β [13]) | ΔΔTm (SXR [14]) | ΔΔTm (SXR [15]) | ΔΔTm (SXR [16]) | further results |
| --- | --- | --- | --- | --- | --- | --- | --- | --- | --- | --- | --- | --- | --- | --- | --- | --- | --- | --- | --- | --- | --- |
| 1320 | 2.7 | 5 | 0.93 | 0.5 | C[C@]12C[C@H](O)[C@H]3[C@@H](CCC4=CC(=O)CC[C@@]43C)[C@@H]1CC[C@@H]2C(=O)CO [Corticosterone] | 12 fold |  |  |  |  |  |  |  |  |  |  |  |  |  |  |  |
|  |  |  |  |  | co-repressor peptide NCoR-1 (from UniProt O75376 2044-2066) |  | 0 °C | 3.4 °C | 1 °C | -0.3 | 0 °C | 3.7 °C | 0.1 °C | 3.8 °C | 0.3 | 0.1 °C | -0.4 °C | 4.7 °C | 3.5 °C | 1.4 °C | change in Tm stabilization from the receptor-ligand ΔTm (ER-α [17]): -0.1 °C; change in Tm stabilization from the receptor-ligand ΔTm (ER-β [18]): -0.3; ΔΔTm (SXR [19]): 1.2 °C; ΔΔTm (SXR [20]): 3.6 °C; change in Tm stabilization from the receptor-ligand ΔTm (ER-α [21]): 0 °C; ΔΔTm (SXR [22]): 6.7 °C; change in Tm stabilization from the receptor-ligand ΔTm (ER-β [23]): 0.3 °C; ΔΔTm (SXR [24]): 3.6 °C; change in Tm stabilization from the receptor-ligand ΔTm (ER-β [25]): 0.4 °C; ΔΔTm (SXR [26]): 0.5 °C; change in Tm stabilization from the receptor-ligand ΔTm (ER-β [27]): -0.7; change in Tm stabilization from the receptor-ligand ΔTm (ER-α [28]): -0.7 °C; ΔΔTm (SXR [29]): 2.3 °C; change in Tm stabilization from the receptor-ligand ΔTm (ER-α [30]): -0.6; change in Tm stabilization from the receptor-ligand ΔTm (ER-β [31]): -0.7 |
| 550 | 3.0 | 6.3 | 0.85 | 1.2 | CC[C@H](C)C(=O)O[C@H]1C[C@@H](C)C=C2C=C[C@H](C)[C@H](CC[C@@H]3C[C@@H](O)CC(=O)O3)[C@H]21 [Lovastatin] | 5-fold |  |  |  |  |  |  |  |  |  |  |  |  |  |  |  |
|  |  |  |  |  | LTERHKILHRLLQEGSPSD (peptide, UniProt Q15788 683-701, looked up, Peptide fragment of SRC-1) [co-activator peptide SRC1-NR2] |  | 0.8 | 3.3 | 4.6 | 3 | 3.4 | 3.3 | -0.5 | 3.5 | 0.2 | 0.2 | 0.7 | 2.5 | 3.3 | 2.9 | change in Tm stabilization from the receptor-ligand ΔTm (ER-α [17]): 4.5; change in Tm stabilization from the receptor-ligand ΔTm (ER-β [18]): 3.8; ΔΔTm (SXR [19]): 3; ΔΔTm (SXR [20]): 2.9; change in Tm stabilization from the receptor-ligand ΔTm (ER-α [21]): 4.9; ΔΔTm (SXR [22]): 2.9; change in Tm stabilization from the receptor-ligand ΔTm (ER-β [23]): 0.4; ΔΔTm (SXR [24]): 2.9; change in Tm stabilization from the receptor-ligand ΔTm (ER-β [25]): 0.2; ΔΔTm (SXR [26]): 2.7; change in Tm stabilization from the receptor-ligand ΔTm (ER-β [27]): 4.4; change in Tm stabilization from the receptor-ligand ΔTm (ER-α [28]): 5.5; ΔΔTm (SXR [29]): 3.9; change in Tm stabilization from the receptor-ligand ΔTm (ER-α [30]): 0.2; change in Tm stabilization from the receptor-ligand ΔTm (ER-β [31]): 2.6 |
